Patent US20180030151A1 (MOGAM INSTITUTE FOR BIOMEDICAL RESEARCH, published 2018)

Target: T1, recombinant human TFPI (tissue factor pathway inhibitor) (human, UniProt P10646 29-304)
T1 construct: Biotin-conjugated in the yeast FACS; also called hTFPI; TFPI antigen
Assay: ELISA of phage-library Fab supernatants on TFPI-coated plate
Experimental: Single colonies were collected from the finally amplified library, and then cultured in 1.5 mL of SB/carbenicillin at 37° C. at 220 rpm until an OD600 of about 0.8-1.0 was reached, followed by incubation with 1 mM IPTG at 30° C. at 200 rpm for 12 hours. Next, the cells were centrifuged at 5500 rpm for 5 minutes, and the supernatant was added to a TFPI antigen-coated ELISA plate, incubated at room temperature for 2 hours, and then washed four times with PBST (1×PBS, 0.05% tween 20). Next, a 1:5000 dilution of an HRP/anti-hFab-HRP conjugate (CAT. No. A0293, Sigma) with 1% BSA/1×PBS was added to the cells, after which the cells were incubated at room temperature for 1 hour and washed four times with PBST (1×PBS, 0.05% tween 20). Then, the cells treated with a TMB solution for 5-10 minutes, and a TMB stop solution was added to the cells. Next, the absorbance at a wavelength of 450 nm was measured using the TECAN sunrise, and clones having high O. D values were selected as individual clones.

B1: clone A71 (antibody, V domains shown)
VH: EVQLVESGGGLVKPGGSLRLSCAASGFTFSSYAMNWVRQAPGKGLEWVSTITTGGSYTYYADSVHGRFTISRDNAKNSLYLQMNSLRAEDTAVYYCARQDGNFLMDYWGQGTLVTVSS
VL: DVVMTQTPLSLPVTLGQPASISCKSSQSLLDTDGKTYLNWLQQRPGQSPKRLIYLVSKLDSGVPDRFTGSGSGTDFTLKISRVEAEDVGVYYCWQGTHFPFTFGQGTKVEIKR
notes: Fab from phage library at selection; human IgG4/kappa IgG as purified
binding result: binds
